# Tested on: thrombin-cleavable lipopeptide conjugate (TCP-stearate)
substance,measurement,value
thrombin,"MALDI-TOF mass spectroscopy of TCP-stearate before and after exposure to thrombin (30 minutes, 250 nM)","thrombin could efficiently cleave the conjugate, evidenced by the fact that after thrombin exposure very little of the TCP-stearate conjugate remains (peak at 1046 m/z), whereas 2 new degradation peaks appear (495 and 534 m/z)"

# — patent US20250041390
